Reference: patent US20240343809A1 (EXCELMAB, published 2024)
Numbering of substitutions follows the chain as printed.

T1: human B7-H3 antigen, recombinant extracellular domain (ECD) (29-461) (human, UniProt Q5ZPR3 29-461)
T1 construct: range 29-461; Expressed in 293F cells as B7-H3-TEV-cFc-His fusion, cut with TEV protease and cleaned over a nickel column to give the human B7-H3 antigen; also called recombinant human B7-H3 antigen; hB7-H3
T1 sequence (looked up): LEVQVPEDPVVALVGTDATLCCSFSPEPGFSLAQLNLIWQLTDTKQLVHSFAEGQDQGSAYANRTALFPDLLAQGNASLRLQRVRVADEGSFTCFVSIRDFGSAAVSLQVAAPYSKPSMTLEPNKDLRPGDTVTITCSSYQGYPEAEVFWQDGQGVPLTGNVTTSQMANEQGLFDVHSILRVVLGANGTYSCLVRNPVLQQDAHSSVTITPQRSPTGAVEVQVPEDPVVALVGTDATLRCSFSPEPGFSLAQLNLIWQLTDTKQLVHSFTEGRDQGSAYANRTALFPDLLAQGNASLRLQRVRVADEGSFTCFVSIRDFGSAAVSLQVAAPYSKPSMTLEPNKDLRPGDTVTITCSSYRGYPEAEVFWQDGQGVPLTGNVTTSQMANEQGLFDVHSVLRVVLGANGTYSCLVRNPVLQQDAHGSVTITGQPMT

B1: B7-H3 antibody 5D9 (antibody, V domains shown)
VH: QVQLVQSGAEVKKPGSSVKVSCKASGGTFSNYAINWVRQAPGQGLEWMGGIIPLFGTANYAQKFQGRVTITADESTSTAYMELSSLRSDDTAVYYCARDQVVATSGVNFGMDVWGQGTTVTVSS
VL: DIQMTQEPSLTTSPGGTVTLTCRSSTGAVTTSNYANWVQEKPGQAPRGLIGGTNKRAPGTPARFSGSLIGGKAALTITGVQPEDEAIYFCALWYSNLWVFGGGTKLEIK
notes: Expressed as full antibody (heavy and light chain) in 293F cells, protein A purified, detected with anti-human IgG
B2: Enoblituzumab (antibody, V domains shown)
VH: EVQLVESGGGLVQPGGSLRLSCAASGFTFSSFGMHWVRQAPGKGLEWVAYISSDSSAIYYADTVKGRFTISRDNAKNSLYLQMNSLRDEDTAVYYCGRGRENIYYGSRLDYWGQGTTVTVSS
VL: DIQLTQSPSFLSASVGDRVTITCKASQNVDTNVAWYQQKPGKAPKALIYSASYRYSGVPSRFSGSGSGTDFTLTISSLQPEDFATYYCQQYNNYPFTFGQGTKLEIKR
B3: affinity-matured B7-H3 antibody 46D4 (antibody, V domains shown)
VH: B1 VH with Q100V, A103P, T104R
VL: B1 VL
notes: Full antibody expressed in 293F cells, protein A purified; VH assembled from the framework and CDR entries
B4: affinity-matured B7-H3 antibody 50E3 (antibody, V domains shown)
VH: B1 VH with Q100V, V101N, V102N, A103P, T104G
VL: B1 VL
notes: as for B3
B5: affinity-matured B7-H3 antibody 48B12 (antibody, V domains shown)
VH: B1 VH with F29T, S30G, N31R, A33L
VL: B1 VL
notes: as for B3
B6: affinity-matured B7-H3 antibody 47H4 (antibody, V domains shown)
VH: B1 VH with Q100F, V101D, V102A, A103P, T104G
VL: B1 VL
notes: as for B3
B7: affinity-matured B7-H3 antibody 49C3 (antibody, V domains shown)
VH: B1 VH with L54N, G56E, T57S, A58V
VL: B1 VL
notes: as for B3
B8: affinity-matured B7-H3 antibody 42A1 (antibody, V domains shown)
VH: B1 VH with F29G, S30G, N31I, A33L
VL: B1 VL
notes: as for B3
B9: affinity-matured B7-H3 antibody 46H9 (antibody, V domains shown)
VH: B1 VH with Q100R, V101E, V102A, A103R, T104E
VL: B1 VL
notes: as for B3
B10: affinity-matured B7-H3 antibody 45B11 (antibody, V domains shown)
VH: B1 VH with L54M, F55W, G56Q, T57S, A58V
VL: B1 VL
notes: as for B3
B11: affinity-matured B7-H3 antibody 49F6 (antibody, V domains shown)
VH: B1 VH with L54G, G56D, T57A, A58V
VL: B1 VL
notes: as for B3
B12: affinity-matured B7-H3 antibody 43D4 (antibody, V domains shown)
VH: B1 VH with F29S, S30G, N31V, Y32A, A33L
VL: B1 VL
notes: as for B3
B13: affinity-matured B7-H3 antibody 50B10 (antibody, V domains shown)
VH: B1 VH with Q100V, V101E, A103F, T104N
VL: B1 VL
notes: as for B3
B14: affinity-matured B7-H3 antibody 49D12 (antibody, V domains shown)
VH: B1 VH with L54R, G56A, T57S, A58R
VL: B1 VL
notes: as for B3
B15: affinity-matured B7-H3 antibody 49E1 (antibody, V domains shown)
VH: B1 VH with L54V, G56R, T57S, A58V
VL: B1 VL
notes: as for B3
B16: affinity-matured B7-H3 antibody 42F7 (antibody, V domains shown)
VH: B1 VH with F29R, S30P, N31A, Y32A, A33L
VL: B1 VL
notes: as for B3
B17: affinity-matured B7-H3 antibody 48G2 (antibody, V domains shown)
VH: B1 VH with F29S, S30R, N31P, Y32V, A33L
VL: B1 VL
notes: as for B3
B18: affinity-matured B7-H3 antibody 44C5 (antibody, V domains shown)
VH: B1 VH with L54R, T57G, A58V
VL: B1 VL
notes: as for B3
B19: affinity-matured B7-H3 antibody 50A4 (antibody, V domains shown)
VH: B1 VH with Q100E, A103V, T104G
VL: B1 VL
notes: as for B3
B20: affinity-matured B7-H3 antibody 49H5 (antibody, V domains shown)
VH: B1 VH with L54D, G56N, T57S
VL: B1 VL
notes: as for B3
B21: affinity-matured B7-H3 antibody 48E9 (antibody, V domains shown)
VH: B1 VH with F29G, S30G, N31A, A33L
VL: B1 VL
notes: as for B3
B22: affinity-matured B7-H3 antibody 49C7 (antibody, V domains shown)
VH: B1 VH with L54N, G56Y, T57S, A58V
VL: B1 VL
notes: as for B3
B23: affinity-matured B7-H3 antibody 48D10 (antibody, V domains shown)
VH: B1 VH with F29R, S30P, N31A, Y32A, A33L
VL: B1 VL
notes: as for B3
B24: affinity-matured B7-H3 antibody 44F2 (antibody, V domains shown)
VH: B1 VH with L54G, G56Y, T57S, A58L
VL: B1 VL
notes: as for B3
B25: affinity-matured B7-H3 antibody 47C8 (antibody, V domains shown)
VH: B1 VH with Q100I, V101E, A103M, T104A
VL: B1 VL
notes: as for B3
B26: affinity-matured B7-H3 antibody 49B2 (antibody, V domains shown)
VH: B1 VH with L54N, G56H, T57S, A58S
VL: B1 VL
notes: as for B3
B27: affinity-matured B7-H3 antibody 43G5 (antibody, V domains shown)
VH: B1 VH with F29V, S30R, N31P, Y32A, A33L
VL: B1 VL
notes: as for B3
B28: affinity-matured B7-H3 antibody 50A11 (antibody, V domains shown)
VH: B1 VH with A103P, T104R
VL: B1 VL
notes: as for B3
B29: affinity-matured B7-H3 antibody 43G11 (antibody, V domains shown)
VH: B1 VH with F29L, S30R, N31P, Y32V, A33L
VL: B1 VL
notes: as for B3
B30: affinity-matured B7-H3 antibody 50A1 (antibody, V domains shown)
VH: B1 VH with A103P, T104L
VL: B1 VL
notes: as for B3
B31: affinity-matured B7-H3 antibody 45F4 (antibody, V domains shown)
VH: B1 VH with G56R, T57S, A58S
VL: B1 VL
notes: as for B3
B32: affinity-matured B7-H3 antibody 48A6 (antibody, V domains shown)
VH: B1 VH with F29R, S30P, N31P, Y32A, A33L
VL: B1 VL
notes: as for B3
B33: affinity-matured B7-H3 antibody 49C8 (antibody, V domains shown)
VH: B1 VH with L54K, G56R, T57S, A58Q
VL: B1 VL
notes: as for B3
B34: affinity-matured B7-H3 antibody 46H7 (antibody, V domains shown)
VH: B1 VH with Q100R, V101F, V102T, A103P, T104R
VL: B1 VL
notes: as for B3
B35: affinity-matured B7-H3 antibody 50A6 (antibody, V domains shown)
VH: B1 VH with Q100A, A103P, T104N
VL: B1 VL
notes: as for B3

target: T1, human B7-H3 antigen, recombinant …; test: ELISA, coated human B7-H3 antigen
Protocol: (§1) The binding activity of the 5D9 to B7-H3 antigen was analyzed by ELISA. Human B7-H3 antigens were coated on the 96-well plate and placed at 4° C. overnight. The antibody 5D9 and controls were diluted to 10 μg/mL, followed by 4-fold dilution gradients to generate a total of 8 different concentrations. The diluted samples and the wells coated antigen were incubated for 1h. After washing, HRP (horseradish peroxidase)-labeled goat anti-human IgG (H+L) secondary antibody was added to the plate and incubated for 1h. TMB (3,3′,5,5′-tetramethylbenzidine) solution was then added to each well after washing for chromogenesis. The absorbance was measured at OD₄₅₀ₙₘ with a microplate reader. Taking the logarithmic value of the sample concentration as the X-axis, and the absorbance OD₄₅₀ₙₘ value as the Y-axis, a dose-response curve was drawn to calculate the EC₅₀. The EC₅₀ represents the binding activity of the antibody to B7-H3 antigen. A negative control IgG group and a positive antibody Enoblituzumab control group were meanwhile set in the experiment.

Question: Does B1 bind?
Answer: binds

target: T1, human B7-H3 antigen, recombinant …; test: ELISA, coated human B7-H3 antigen; remark: another data set of the same source
Protocol: as §1
ELISA was used to analyze the binding activity of affinity-matured variants to human B7-H3 antigen. By taking the logarithmic value of the sample concentration as the X-axis, and the absorbance OD₄₅₀ₙₘ value as the Y-axis, a dose-response curve was drawn to calculate the EC₅₀. The EC₅₀ represents the binding activity of the affinity-matured variants to B7-H3 antigen. A positive control Enoblituzumab and a negative control hIgG were set in the experiment.

Question: Which EC50 does the source give for B2 here?
Answer: 0.0255 µg/mL

Question: With B3 as the binder, how does the EC50 read?
Answer: 0.0283 µg/mL

Question: With B4 as the binder, how does the EC50 read?
Answer: 0.0418 µg/mL

Question: B5 was tested. Which EC50 did it give?
Answer: 0.0259 µg/mL

Question: Which EC50 does the source give for B6 here?
Answer: 0.0244 µg/mL

Question: For B7, which EC50 is on record?
Answer: 0.0245 µg/mL

Question: For B8, which EC50 is on record?
Answer: 0.0354 µg/mL

Question: For B9, which EC50 is on record?
Answer: 0.147 µg/mL

Question: B10 was tested. Which EC50 did it give?
Answer: 0.0265 µg/mL

Question: B11 was tested. Which EC50 did it give?
Answer: 0.0309 µg/mL

Question: Which EC50 does the source give for B12 here?
Answer: 0.0303 µg/mL

Question: Which EC50 does the source give for B13 here?
Answer: 0.0278 µg/mL

Question: Which EC50 does the source give for B14 here?
Answer: 0.0219 µg/mL

Question: B15 was tested. Which EC50 did it give?
Answer: 0.0261 µg/mL

Question: With B16 as the binder, how does the EC50 read?
Answer: 0.0278 µg/mL

Question: How did the EC50 turn out when B17 was run?
Answer: 0.0303 µg/mL

Question: Which EC50 does the source give for B18 here?
Answer: 0.0639 µg/mL

Question: Which EC50 does the source give for B19 here?
Answer: 0.0274 µg/mL

Question: With B20 as the binder, how does the EC50 read?
Answer: 0.0336 µg/mL

Question: With B21 as the binder, how does the EC50 read?
Answer: 0.0438 µg/mL

Question: For B22, which EC50 is on record?
Answer: 0.033 µg/mL

Question: How did the EC50 turn out when B23 was run?
Answer: 0.0251 µg/mL

Question: For B24, which EC50 is on record?
Answer: 0.0464 µg/mL

Question: For B25, which EC50 is on record?
Answer: 0.0426 µg/mL

Question: B26 was tested. Which EC50 did it give?
Answer: 0.0286 µg/mL

Question: B27 was tested. Which EC50 did it give?
Answer: 0.0279 µg/mL

Question: B28 was tested. Which EC50 did it give?
Answer: 0.0339 µg/mL

Question: How did the EC50 turn out when B29 was run?
Answer: 0.0411 µg/mL

Question: B30 was tested. Which EC50 did it give?
Answer: 0.0321 µg/mL

Question: For B31, which EC50 is on record?
Answer: 0.0219 µg/mL

Question: Which EC50 does the source give for B32 here?
Answer: 0.0272 µg/mL

Question: Which EC50 does the source give for B33 here?
Answer: 0.0285 µg/mL

Question: How did the EC50 turn out when B34 was run?
Answer: 0.039 µg/mL

Question: B35 was tested. Which EC50 did it give?
Answer: 0.0247 µg/mL
